Experimental data as given in publication PMC4888466.

Legend:
Experiment in all cases: purified protein
Assay type in all cases: biochemical, Caenorhabditis elegans
[1] = tested on: O=P(O)(O)O[C@H]1O[C@H](CO)[C@@H](O)[C@H](O)[C@H]1O; conditions: 1 mM GTP, 5 mM MgCl2, pH 7.5, 25°C
[2] = tested on: O=P(O)(O)O[C@H]1O[C@H](CO)[C@@H](O)[C@H](O)[C@@H]1O; conditions: 1 mM GTP, 5 mM MgCl2, pH 7.5, 25°C
[3] = tested on: Nc1nc2c(ncn2[C@@H]2O[C@H](COP(=O)(O)OP(=O)(O)OP(=O)(O)O)[C@@H](O)[C@H]2O)c(=O)[nH]1; conditions: 1 mM Man-1-P, 5 mM MgCl2, pH 7.5, 25°C

## GMP-1 (Caenorhabditis elegans)
[1]
  Km: 508.90 ± 118.40 µM
  kcat: 33.1 ± 2.9 s⁻¹
  kcat/Km: 65000 ± 16000 M⁻¹ s⁻¹
[2]
  Km: 18.49 ± 2.14 µM
  kcat: 30.3 ± 0.69 s⁻¹
  kcat/Km: 1.64e+06 ± 190000 M⁻¹ s⁻¹
[3]
  Km: 16.04 ± 1.68 µM
  kcat: 29.1 ± 0.58 s⁻¹
  kcat/Km: 1.81e+06 ± 190000 M⁻¹ s⁻¹
